The results in this text go back to patent US20200199244A1 (published 2020).

In assay [1] the target is T1, human CD40 (W109R) Fc fusion (Chimpanzee CD40) (human, UniProt P25942 21-193).
T1 construct: Same construct as wt-hCD40 with W109R (the residue of chimpanzee CD40); also called hCD40-M3; hCD40 M3 (W109R); not shown: human IgG1 Fc
The assay is described as follows: SPR, ProteOn XPR36; CD40-Fc captured, dAb analyte.

Assay [2] concerns the target T2, human CD40 (W109L, L121P) Fc fusion (human, UniProt P25942 21-193).
T2 construct: Same construct as wt-hCD40 with W109L and L121P; also called hCD40-M4; hCD40 M4 (W109L, L121P); not shown: human IgG1 Fc
The assay is described as follows: SPR, ProteOn XPR36; CD40-Fc captured, dAb analyte. Background: In SPR one partner is held on a chip, and binding of the other changes the refractive index at the surface.

Assay [3] addresses T3, human CD40 (H76R, W109L, L121P) Fc fusion (human).
T3 construct: Same construct as wt-hCD40 with H76R, W109L and L121P; also called hCD40-M5; hCD40-M5 (H76R, W109L, L121P); not shown: human IgG1 Fc
T3 chain: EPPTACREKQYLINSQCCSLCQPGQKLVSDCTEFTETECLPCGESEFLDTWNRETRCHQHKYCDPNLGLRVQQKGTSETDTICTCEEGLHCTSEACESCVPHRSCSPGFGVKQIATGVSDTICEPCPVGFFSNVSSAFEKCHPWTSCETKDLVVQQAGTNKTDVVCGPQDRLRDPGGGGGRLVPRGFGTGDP
The experiment in a line: SPR, ProteOn XPR36; CD40-Fc captured, dAb analyte.

Assay [4] concerns the target T4, wild type cynomolgus monkey CD40 Fc fusion (cynomolgus monkey (Macaca …)).
T4 construct: also called wt-cCD40; wt-cyno-CD40; not shown: human IgG1 Fc
T4 chain: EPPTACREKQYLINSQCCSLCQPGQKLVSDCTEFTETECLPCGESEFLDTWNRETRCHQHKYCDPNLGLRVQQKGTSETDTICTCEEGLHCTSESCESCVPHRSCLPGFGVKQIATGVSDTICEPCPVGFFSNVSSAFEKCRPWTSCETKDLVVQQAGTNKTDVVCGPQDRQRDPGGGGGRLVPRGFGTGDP
The experiment in a line: SPR, ProteOn XPR36; CD40-Fc captured, dAb analyte.

The target of assay [5] is T5, wild type human CD40 Fc fusion (human, UniProt P25942 21-193).
T5 construct: also called wt-hCD40; not shown: human IgG1 Fc
The experiment in a line: SPR, ProteOn XPR36; CD40-Fc captured, dAb analyte; 1:1 fit.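 Note: CD40-Fc captured on anti-human IgG(Fc) surface of a GLC chip, buffer pH 7.1, sensorgrams double-referenced against surfaces without CD40-Fc.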

For assay [6], the target named is T6, human CD40 (H76R) Fc fusion (human, UniProt P25942 21-193).
T6 construct: also called hCD40-M1; hCD40 M1 (H76R); not shown: human IgG1 Fc
The assay is described as above.

Assay [7] addresses T5, wild type human CD40 Fc fusion. The assay is described as follows: SPR, ProteOn XPR36; CD40-Fc captured, dAb analyte; 1:1 fit; repeat.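 Note: CD40-Fc captured on anti-human IgG(Fc) surface of a GLC chip, buffer pH 7.1, sensorgrams double-referenced against surfaces without CD40-Fc.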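 Note: CD40-Fc held on a GLC chip by an immobilized anti-human IgG(Fc) antibody, sensorgrams double-referenced against CD40-free surfaces, running buffer sodium phosphate with NaCl and Tween 20 at pH 7.1.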
Description: Assays were performed on a BioRad ProteOn XPR36 SPR instrument. The SPR surfaces were prepared by immobilizing 8 μg/ml anti-human IgG(Fc) antibody (Biacore/GE Healthcare) in 10 mM sodium acetate pH 4.5 on a BioRad GLC sensor chip using standard ethyl(dimethylaminopropyl) carbodiimide (EDC)/N-hydroxysuccinimide (NHS) chemistry, with ethanolamine blocking. The running buffer for immobilization and kinetic binding analysis was 10 mM sodium phosphate, 130 mM sodium chloride, 0.05% tween 20, pH 7.1. CD40-Fc fusion proteins at concentrations of 20 μg/ml were captured in the vertical orientation on these surfaces via the Fc tail, and reference surfaces lacking CD40-Fc proteins were used for reference subtraction. […] The surfaces were regenerated in both horizontal and vertical orientations with 30 s pulses of 3 M MgCl₂ followed by running buffer at 60 μl/min. Sensogram data was double-referenced and then fitted to a 1:1 Langmuir model using BioRad ProteOn Manager V.2.1.0.38 software, to determine the association rate constant (ka), the dissociation rate constant (kd), and the equilibrium dissociation constant (KD).
The target of assay [8] is T7, human CD40 (BMS, CY24FEB06-01) (human, UniProt P25942 21-193).
T7 construct: Soluble reagent of the bead and ELISA RBA; It is detected with an anti-human IgG (Fc) mAb, so it may be a CD40-Ig fusion
The assay is described as follows: ELISA RBA, competition with IZ-CD40L.
Description: Clear walled High Bind, 384-well plates (Corning, UK) were coated with 25 μl of 1 μg/ml Neutravidin in 0.2 M carbonate-bicarbonate buffer, pH 9.4 overnight at 4° C. The following day, assay plates were washed with 0.1% (v/v) Tween PBS buffer, blocked with 1% (w/v) BSA in PBS for 1 hour at room temperature and washed again. […] Following washing of the assay plate, the dAb:human CD40 complex was incubated in the assay plate at room temperature for 2 hours with gentle agitation. […] Absorbance signal was measured using a SpectraMax® M5e plate reader (Molecular Devices) at 450 nm following neutralization with 1M HCl solution.

Assay [9] addresses T7, human CD40 (BMS, CY24FEB06-01). The assay is described as follows: bead RBA, competition with IZ-CD40L.
For assay [10], the target named is T8, human CD40 expressed on stably transfected CHO-DG44 cells (human, UniProt P25942 21-277).
T8 construct: also called CHO-CD40
The experiment in a line: CHO-CD40 cell RBA, competition with IZ-CD40L.

Assay [11] has as its target T9, wild type cynomolgus monkey CD40 Fc fusion (cynomolgus monkey (Macaca …)).
T9 construct: also called wt-cyno-CD40; wt-cCD40; not shown: human IgG1 Fc
T9 chain: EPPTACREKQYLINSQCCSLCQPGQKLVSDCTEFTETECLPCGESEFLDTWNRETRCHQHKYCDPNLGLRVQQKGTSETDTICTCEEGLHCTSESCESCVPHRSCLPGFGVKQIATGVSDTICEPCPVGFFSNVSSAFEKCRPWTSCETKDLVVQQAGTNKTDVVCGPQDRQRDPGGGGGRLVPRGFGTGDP
The assay is described as follows: SPR (ProteOn XPR36), CD40-Fc captured via anti-human IgG(Fc), dAb as analyte, 25 C.

Assay [12] deals with T10, human CD40 (W109L, L121P) Fc fusion (human, UniProt P25942 21-193).
T10 construct: Made by site-directed mutagenesis of the wild type construct; no cleavage site is stated; also called hCD40-M4; hCD40 M4 (W109L, L121P); not shown: human IgG1 Fc
Described as above.

Assay [13] concerns the target T11, human CD40 (H76R, W109L, L121P) Fc fusion (human).
T11 construct: Made by site-directed mutagenesis of the wild type construct; no cleavage site is stated; also called hCD40-M5; hCD40-M5 (H76R, W109L, L121P); not shown: human IgG1 Fc
T11 chain: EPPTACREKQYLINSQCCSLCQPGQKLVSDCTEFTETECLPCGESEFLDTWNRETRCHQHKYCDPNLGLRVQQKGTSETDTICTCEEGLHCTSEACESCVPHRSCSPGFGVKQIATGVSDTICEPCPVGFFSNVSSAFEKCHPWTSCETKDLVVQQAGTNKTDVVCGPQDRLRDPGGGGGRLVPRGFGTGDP
The assay is described as above.

“And” between values parts separate entries of the source, which are not always exact repeats. Equal values may be shown once. Where only a bound is given, the exact number is not on record here.

B1: BMS3h-38-217 (other)
VH: EVQLLASGGGLVQPGGSLRLSCAASGFTFEEEEMIWVRQAPGKGLEWVSAISRRGYSTYYADSVKGRFTISRDNSKNTLYLQMNSLRAEDTAVYYCGKEPFRYDYWGQGTLVTVSS
notes: Anti-human CD40 domain antibody (dAb), single VH domain
The Kd is the constant that tells how readily two partners part at equilibrium. By koff is commonly meant a measure of how fast the partners let go of each other. By kon is commonly meant a measure of how fast the partners come together. Turning to B1, the binding result in assay [1], in assay [2], in assay [3] and in assay [4] was “no binding (tested: dAb tested up to 405 nM)” in each case. The Kd in assay [5] turned out to be 2.34 nM; in [6] it was 3.41 nM; in assay [7], 2.37 nM. The koff in assay [5] was 0.000296 s⁻¹; in assay [6], 0.000481 s⁻¹; in [7], 0.00034 s⁻¹. The kon came out at 127000 M⁻¹ s⁻¹ in [5], 141000 M⁻¹ s⁻¹ in assay [6] and 144000 M⁻¹ s⁻¹ in assay [7].

B2: BMS3h-287 (other)
VH: EVQLLESGGGLVQPGGSLRLSCAASGFTFTNYRMSWVRQAPGKGLEWVSAIDDLGVSTYYADSVKGRFTISRDNSKNTLYLQMNSLRAEDTAVYYCAKWRLKNSQPTDFDYWGQGTLVTVSS
notes: dAb, single VH
The term EC50 denotes the concentration giving half of the maximal effect. For B2, the EC50 in [8] was > 10000 nM and 6760 nM.

B3: BMS3h-233 (other)
VH: EVQLLESGGGLVQPGGSLRLSCAASGFTFAHYNMRWVRQAPGKGLEWVSTITKTGFRTYYADSVKGRFTISRDNSKNTLYLQMNSLRAEDTAVYYCAKAGQFDFDYWGQGTLVTVSS
notes: dAb, single VH
On to B3, for which the midpoint of the response in assay [8], the EC50, lay at 2770 nM.

B4: BMS3h-43 (other)
VH: EVQLLESGGGLVQPGGSLRLSCTASGFTFNMYEMSWVRQAPGKGLEWVSGISRRGFTTYYADSVKGRFTISRDNSKNTLYLQMNSLRAEDTAVYYCAKEPITYAMRYARFDYWGQGTLVTVSS
notes: dAb, single VH
Take B4: the EC50 in assay [9] is 100 nM and 50 nM; in assay [10], 5000 nM.

B5: BMS3h-257 (other)
VH: EVQLLESGGGLVQPGGSLRLSCAASGFTFQNYQMAWVRQAPGKGLEWVSTISGTGKNTYYADSVKGRFTISRDNSKNTLYLQMNSLRAEDTAVYYCAKTPQNYFSVRRFDYWGQGTLVTVSS
notes: dAb, single VH
Turning to B5, in assay [8], the EC50 is 3210 nM and 1340 nM.

B6: BMS3h-56-2 (other)
VH: EVQLLESGGGLVQPGGSLRLSCAASGFTFRDYEMWWVRQAPGKGLERVSAINPQGTRTYYADSVKGRFTISRDNSKNTLYLQMNSLRAEDTAVYYCAKLPFTFDDWGQGTLVTVSS
notes: Anti-human CD40 domain antibody (dAb), a single human VH domain
For B6, the binding result in [11] is “no binding (tested: 405 nM (highest dAb concentration))”.

B7: BMS3h-56-5 (other)
VH: EVQLLESGGGLVQPGGSLRLSCAASGFTFRDYEMWWVRQAPGKGLERVSAINPQGTRTYYADSVMGRFTISRDNSKNTLYLQMNSLRAEDTAVYYCAKLPFTFDDWGQGTLVTVSS
notes: as for B6
Take B7: the binding result in [12], in [13] and in [11] was “no binding (tested: 405 nM (highest dAb concentration))” in each case.

B8: BMS3h-56-202 (other)
VH: EVQLLESGGGLVQPGGSLRLSCAASGFTFRDYEMWWVRQAPGKGLERVSAINPQGTRTYYADSVKGRFTISRDNSKNTLYLQMNSLRAEDTAVYYCAKLPTYFSDRGQGTLVTVSS
notes: as for B6
For the molecule B8, the binding result in assay [12], in assay [13] and in assay [11] was “no binding (tested: 405 nM (highest dAb concentration))” in each case.

B9: BMS3h-56-217 (other)
VH: EVQLLESGGGLVQPGGSLRLSCAASGFTFRDYEMWWVRQAPGKGLERVSAINPWGSLTYYADSVKGRFTISRDNSKNTLYLQMNSLRAEDTAVYYCAKLPFTFEDWGQGTLVTVSS
notes: as for B6
As to B9, the binding result in assay [12], in assay [13] and in [11] was “no binding (tested: 405 nM (highest dAb concentration))” throughout.

B10: BMS3h-56-206 (other)
VH: EVQLLESGGGLVQPGGSLRLSCAASGFTFRDYEMWWVRQAPGKGLERVSAINPQGTRTYYADSVKGRFTISRDNSKNTLYLQMNSLRAEDTAVYHCAKLPMFFEDWGQGTLVTVSN
notes: as for B6
In the case of B10, the binding result in assay [12], in assay [13] and in assay [11] was “no binding (tested: 405 nM (highest dAb concentration))” throughout.

B11: BMS3h-217 (other)
VL: DIQMTQSPSSLSASVGDRVTITCRASHFIGTLLSWYQQKPGKAPKLLITYGSLLQSGVPSRFSGSGSGTDFTLTISSLQPEDFATYYCGQGVLWPATFGQGTKVEIKR
notes: dAb, single VK
As for B11, the EC50 in assay [9] was found to be 800 nM; in [10], 1400 nM.

B12: BMS3h-198 (other)
VH: EVQLLESGGGLVQPGGSLRLSCAASGFTFAGYEMWWVRQAPGKGLERVSAISGSGGSTYYADSVKGRFTISRDDSKNTLYLQMNSLRAEDTAVYYCAKDPYSFDYWGQGTLVTVSS
notes: dAb, single VH
For the molecule B12, the results for the EC50 in [9] and in assay [10] were 80 nM and 600 nM, respectively.

B13: BMS3h-231 (other)
VH: EVQLLESGGGLVQPGGSLRLSCAASGFTFSAYNMWWARQAPGKGLEWVSWINSTGSRTYYADSVKGRFTISRDNSKNTLYLQMNSLRAEDTAVYYCAKNWHRGRFDYWGQGTLVTVSS
notes: dAb, single VH
Turning to B13, the concentration giving a half-maximal response (EC50) in assay [8] was 670 nM and 870 nM.
